Data as given in publication PMC10761869 (Nature Communications, 2024).
Blank lines part the entries; values can stand above or below the molecule they belong to.

Legend:
[1] = biological target: Sgt2^BFL (His6-Sgt2-LPATGG labelled with BODIPY-FL at the C-terminus); assay: FRET or BRET; 50–150 nM purified Sgt2^BFL-TA^CM complex in GET buffer chased with 14–28 µM cpSRP43; recovery of donor fluorescence (excitation 360 nm, emission 460 nm); TA dissociation
[2] = biological target: Sgt2^BFL (His6-Sgt2-LPATGG labelled with BODIPY-FL at the C-terminus); assay: as above; remark: listed apart in the source
[3] = biological target: Sgt2^BFL (His6-Sgt2-LPATGG labelled with BODIPY-FL at the C-terminus); assay: FRET or BRET; 50–150 nM purified Sgt2^BFL-Bos1^CM complex in GET buffer chased with 2.5–30 µM CaM or with unlabeled Sgt2; recovery of donor fluorescence; intrinsic koff by extrapolation of the CaM concentration dependence to the Y-axis
[4] = biological target: His6-Sgt2-G258C, not crosslinked (UniProt Q12118); assay: cross-linking; purified Sgt2-C258-TA^Bpa complex incubated with 1 mM BMH at RT, quenched with 10 mM DTT; anti-His immunoblot
[5] = biological target: His6-Sgt2-G258C, not crosslinked (UniProt Q12118); assay: cross-linking; intradimer crosslink of Sgt2 single cysteine variants with the thiol-specific homo-bifunctional crosslinker bismaleimidohexane (BMH)
[6] = biological target: Ssa1^TMR, TMR-labeled Ssa1(D430C) (yeast) (UniProt P10591); assay: FRET or BRET; 20 nM Bos1^BFL with 500 nM Ssa1^TMR, with or without 500 nM Ydj1, 5 min; excitation 485 nm; chased with cpSRP43 or a five-fold excess of unlabeled Ssa1
[7] = biological target: (Sgt2-C258)XL2, BMH-crosslinked Sgt2-C258 dimer (UniProt Q12118); assay: cross-linking; Bos1^Bpa translated with 35S-methionine in S30 lysate in the presence of Sgt2 or Sgt2-C258; complexes purified via His6 on Sgt2, treated with 1 mM BMH; UV crosslinking, SDS-PAGE, autoradiography; time courses after adding 15–20 µM CaM (1 mM Ca(OAc)2) or 0.75 µM Get3 with 2 mM ATP, with or without 0.75 µM Get4/5
[8] = biological target: His6-Sgt2 (wildtype Sgt2) (UniProt Q12118); assay: as above
[9] = biological target: T1, His6-Sgt2 (wildtype Sgt2), Q12118
T1 chain: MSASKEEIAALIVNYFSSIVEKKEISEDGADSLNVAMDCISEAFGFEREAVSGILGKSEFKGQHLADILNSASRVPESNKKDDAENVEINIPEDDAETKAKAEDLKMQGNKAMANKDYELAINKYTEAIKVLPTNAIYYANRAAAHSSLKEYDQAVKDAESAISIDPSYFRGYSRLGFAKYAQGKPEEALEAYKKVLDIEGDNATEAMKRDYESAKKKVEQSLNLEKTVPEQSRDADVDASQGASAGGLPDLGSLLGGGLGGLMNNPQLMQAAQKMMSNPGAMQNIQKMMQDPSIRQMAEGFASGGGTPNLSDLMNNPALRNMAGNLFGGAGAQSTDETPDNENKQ

[10] = biological target: Bos1^Bpa, in vitro translated (Strep3-tagged, 35S-methionine); assay: pull-down + cross-linking; Bos1^Bpa translated in S30 extract in the presence of 2 µM His6-Sgt2 or Sgt2ΔN; pulldown on the strep3-tagged TA; UV crosslinking, autoradiography
[11] = biological target: T2, Ssa1 (tagless) (yeast, UniProt P10591 1-642); assay: pull-down; TA (0.3 µM) loaded on 3 µM Ssa1 with 2 mM ATP, with or without 3 µM Ydj1, then 0.6 µM His6-Sgt2; Talon resin, GET buffer (150 mM KOAc) with 5 mM imidazole wash; details: both partners purified
T2 construct: Ssa1, the major cytosolic Hsp70 in yeast; also called Hsp70; unlabeled Ssa1; source: recombinant His6-SUMO fusion, purified (Ni Sepharose, SUMO protease, MonoQ)
T2 sequence (P10591 whole entry, the tested form may be a part): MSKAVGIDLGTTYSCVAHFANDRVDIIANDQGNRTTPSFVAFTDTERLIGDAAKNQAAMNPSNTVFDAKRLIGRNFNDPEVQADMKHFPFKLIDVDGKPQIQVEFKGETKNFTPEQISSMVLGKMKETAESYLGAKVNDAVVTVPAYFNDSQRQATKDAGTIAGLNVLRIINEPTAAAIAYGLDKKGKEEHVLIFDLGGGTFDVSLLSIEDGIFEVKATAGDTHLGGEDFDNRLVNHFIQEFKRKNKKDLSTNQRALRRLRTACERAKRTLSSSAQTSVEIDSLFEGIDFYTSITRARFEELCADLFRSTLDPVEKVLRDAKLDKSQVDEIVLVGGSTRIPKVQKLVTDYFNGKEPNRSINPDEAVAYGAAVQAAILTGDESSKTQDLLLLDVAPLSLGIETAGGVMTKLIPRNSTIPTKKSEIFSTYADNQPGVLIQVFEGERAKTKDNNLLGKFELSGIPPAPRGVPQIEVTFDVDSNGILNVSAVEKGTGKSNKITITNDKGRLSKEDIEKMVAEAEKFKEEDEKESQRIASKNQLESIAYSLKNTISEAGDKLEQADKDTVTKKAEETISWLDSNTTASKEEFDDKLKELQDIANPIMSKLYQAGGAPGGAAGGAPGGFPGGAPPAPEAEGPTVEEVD

[12] = biological target: T3, Ssa1 (yeast, UniProt P10591 1-642); assay: pull-down; 0.6 µM His6-Sgt2 added for 1 min to a preformed Ssa1-TA complex (0.3 µM TA, 3 µM Ssa1, 2 mM ATP, with or without 3 µM Ydj1) in GET buffer; captured on Talon resin at 4 °C, washed with GET buffer + 5 mM imidazole, eluted with 300 mM imidazole; silver stain and anti-Strep western blot; details: both partners purified
T3 construct: Ssa1, the major cytosolic Hsp70 of yeast; also called Hsp70; source: recombinant His6-SUMO fusion, purified (Ni Sepharose, SUMO protease, MonoQ)
T3 sequence (P10591 whole entry, the tested form may be a part): as above

Molecule: Bos1^BFL (BFL-labeled Bos1)
- koff, slow phase (~50% of the fluorescence change) [6]: 0.0005 s⁻¹

Molecule: Bos1^Bpa, in vitro translated (Strep3-tagged, 35S-methionine)
- rate constant of loss of the TA crosslink to (Sgt2-C258)XL2 on transfer to Get3 with Get4/5 [7]: 3.5 min⁻¹
- apparent rate constant of TA loss from Sgt2 to CaM (20 µM CaM) [8]: 0.78 min⁻¹

Molecule: SEQTITSINKRVFKDKLVFWIALILLIIGIYYVLKWLR (modifications not checked) [Strep-SUMO-Bos1 (model TA substrate Bos1), unlabelled]
- equilibrium of Sgt2 closing (K closing; µs-ALEX smFRET of doubly labelled Sgt2^ATTO550/ATTO647N, mpH2MM) in the purified Sgt2-TA complex; apo-Sgt2 0.221 [9]: 0.597

B1: His6-Sgt2 (wildtype Sgt2) (natural protein, UniProt Q12118 1-346, looked up)
chain: T1 chain
notes: Sgt2, cochaperone of the GET pathway; The functional rows were measured with Sgt2 doubly labelled with ATTO550/ATTO647N at the C-terminus (His6-Sgt2-LPATGG ligated to GGGC-dye by sortase A); also called Sgt2-WT; unlabeled Sgt2; source: cells lysed with BugBuster
- percent of Bos1^Bpa crosslinked [10]: > 43%
- binding result [11]: binds

B2: His6-tagged wildtype Sgt2 (natural protein, S. cerevisiae (printed as ScSgt2), UniProt Q12118 1-346, looked up)
chain: T1 chain
notes: Sgt2 (ScSgt2); also called His6-Sgt2; His-Sgt2-WT
- binding result [12]: binds

Now from value to molecule:

- koff [1]: 0.000283 to 0.000317 s⁻¹
- koff [2]: 0.0003 s⁻¹
- apparent rate constant of Bos1 release from Sgt2 with 30 µM CaM [3]: 0.91 min⁻¹
- koff [3]: 0.0003 s⁻¹
Molecule: Bos1^CM (Strep-SUMO-Bos1 labelled with coumarin)

- percent crosslinked by BMH (intradimer, in the complex with TA) [4]: 50%
- BMH crosslinking efficiency (intradimer) [5]: 46%
Molecule: His6-Sgt2-G258C, not crosslinked (from UniProt Q12118 1-346) (natural protein)

- percent of Bos1^Bpa crosslinked [10]: 6%
B3: His6-Sgt2ΔN (residues 96–346) (domain or fragment)
chain: AETKAKAEDLKMQGNKAMANKDYELAINKYTEAIKVLPTNAIYYANRAAAHSSLKEYDQAVKDAESAISIDPSYFRGYSRLGFAKYAQGKPEEALEAYKKVLDIEGDNATEAMKRDYESAKKKVEQSLNLEKTVPEQSRDADVDASQGASAGGLPDLGSLLGGGLGGLMNNPQLMQAAQKMMSNPGAMQNIQKMMQDPSIRQMAEGFASGGGTPNLSDLMNNPALRNMAGNLFGGAGAQSTDETPDNENKQ
